The first assay concerns the target HLA-A*0201 (Homo sapiens, UniProt P04439, D140Y/D185E/D98H/E176V/E277Q/G131W/G231S/I119V/I121R/I166T/I218V/L300P/L318F/N151K/N90K/P208A/P217A/Q86G/Q94H/R138H/R169H/T345S). Kind of assay: UV-ligand exchange with ELISA of stabilized MHC complexes. The format is binding. Conditions: ELISA detecting β2m of stabilized MHC complexes. The source says: Candidate peptides for the vaccines according to the present invention were further tested for immunogenicity by in vitro priming assays. The individual peptide-MHC complexes required for these assays were produced by UV-ligand exchange, where a UV-sensitive peptide is cleaved upon UV-irradiation, and exchanged with the peptide of interest as analyzed. Only peptide candidates that can effectively bind and stabilize the peptide-receptive MHC molecules prevent dissociation of the MHC complexes. To determine the yield of the exchange reaction, an ELISA was performed based on the detection of the light chain (β2m) of stabilized MHC complexes. The assay was performed as generally described in Rodenko et al. (Rodenko B, Toebes M, Hadrup S R, van Esch W J, Molenaar A M, Schumacher T N, Ovaa H. Generation of peptide-MHC class I complexes through UV-mediated ligand exchange. Nat Protoc. 2006; 1(3):1120-32.).
96 well MAXISorp plates (NUNC) were coated over night with 2 ug/ml streptavidin in PBS at room temperature, washed 4× and blocked for 30 min at 37° C. in 2% BSA containing blocking buffer. Refolded HLA-A*0201/MLA-001 monomers served as standards, covering the range of 8-500 ng/ml. Peptide-MHC monomers of the UV-exchange reaction were diluted 100 fold in blocking buffer. Samples were incubated for 1 h at 37° C., washed four times, incubated with 2 ug/ml HRP conjugated anti-β2m for 1 h at 37° C., washed again and detected with TMB solution that is stopped with […]. Absorption was measured at 450 nm.
(In an ELISA, binding on a coated surface is turned into a signal by an enzyme label.)
For “RLLJAAENFL (RLLAAENFL; listed as Homo sapiens) [SEQ ID NO 49]”, the “Average exchange yield in %” value is given as 47%.

The assay is the same for the next values; noted with them: class symbol.
For the substance “VLLPVEVATHYL (listed as Homo sapiens) [SEQ ID NO 11]”, the Exchange yield entry is listed as “+++ (50%-70%, +++)”. On the same count and under the same terms, the result for “GLYPDAFAPV (listed as Homo sapiens) [SEQ ID NO 25]” reads “+++ (50%-70%, +++)”. Same read-out and setting: with “GLAEDIDKGEV (listed as Homo sapiens) [SEQ ID NO 57]” the entry was “++ (20%-49% = ++)”.

With “AIMGFIGFFV (listed as Homo sapiens) [SEQ ID NO 45]”, the Exchange yield result is listed as “+ (<20% = +)”. The same measure, in the same setting: with “KLSWDLIYL (listed as Homo sapiens) [SEQ ID NO 32]” the entry was “+++ (50%-70%, +++)”; with “ALANQKLYSV (listed as Homo sapiens) [SEQ ID NO 83]”, “+++ (50%-70%, +++)”; with “ILQDRLNQV (listed as Homo sapiens) [SEQ ID NO 67]”, “++ (20%-49% = ++)”. The same measure, in the same setting: the result for “ALWEKNTHL (listed as Homo sapiens) [SEQ ID NO 82]” reads “+++ (50%-70%, +++)”. On to “ILFPDIIARA (listed as Homo sapiens) [SEQ ID NO 62]”, for which the Exchange yield result is “++++ (>70 = ++++)”. The same measure, in the same setting: the result for “GLTDNIHLV (listed as Homo sapiens) [SEQ ID NO 40]” reads “+++ (50%-70%, +++)”; that for “SLAGDVALQQL (listed as Homo sapiens) [SEQ ID NO 63]”, “++++ (>70 = ++++)”. Still for that read-out and setting: with “FLVDGSWSV (listed as Homo sapiens) [SEQ ID NO 24]” the entry was “+++ (50%-70%, +++)”; with “KLVEFDFLGA (listed as Homo sapiens) [SEQ ID NO 54]”, “+++ (50%-70%, +++)”; with “ALVDHTPYL (listed as Homo sapiens) [SEQ ID NO 20]”, “++ (20%-49% = ++)”. On the same count and under the same terms, the result for “ILVSWLPRL (listed as Homo sapiens) [SEQ ID NO 59]” reads “++++ (>70 = ++++)”; that for “RLLGPSAAADILQL (listed as Homo sapiens) [SEQ ID NO 17]”, “++ (20%-49% = ++)”; that for “AMFENFVSV (listed as Homo sapiens) [SEQ ID NO 91]”, “+++ (50%-70%, +++)”. Take “TLTNIIHNL (listed as Homo sapiens) [SEQ ID NO 46]”: the Exchange yield result was “+++ (50%-70%, +++)”.

As for “AIDGNNHEV (listed as Homo sapiens) [SEQ ID NO 31]”, the Exchange yield result was “++ (20%-49% = ++)”. Still for that read-out and setting: the result for “SLLPVDIRQYL (listed as Homo sapiens) [SEQ ID NO 50]” reads “+++ (50%-70%, +++)”; that for “ILMGTELTQV (listed as Homo sapiens) [SEQ ID NO 84]”, “++ (20%-49% = ++)”. As to “VVDKTLLLV (listed as Homo sapiens) [SEQ ID NO 60]”, the Exchange yield result is “++ (20%-49% = ++)”. As to “SLIDADPYL (listed as Homo sapiens) [SEQ ID NO 58]”, the Exchange yield entry is “+++ (50%-70%, +++)”. For “TLYPHTS (TLYPHTSQV; listed as Homo sapiens) [SEQ ID NO 18]”, the Exchange yield result is “++ (20%-49% = ++)”. Same read-out and setting: with “ALYGRLEVV (listed as Homo sapiens) [SEQ ID NO 81]” the entry was “++++ (>70 = ++++)”; with “AMATESILHFA (listed as Homo sapiens) [SEQ ID NO 86]”, “+++ (50%-70%, +++)”. The same measure, in the same setting: the result for “TVAEVIQS V (TVAEVIQSV; listed as Homo sapiens) [SEQ ID NO 27]” reads “+++ (50%-70%, +++)”. As to “SILTIEDGIFEV (listed as Homo sapiens) [SEQ ID NO 41]”, the Exchange yield entry is listed as “++ (20%-49% = ++)”. On to “NLLAEIHGV (listed as Homo sapiens) [SEQ ID NO 44]”, for which the Exchange yield entry is reported as “++++ (>70 = ++++)”.

As to “RLLJAAENFL (RLLAAENFL; listed as Homo sapiens) [SEQ ID NO 49]”, the Exchange yield entry is listed as “++ (20%-49% = ++)”.

Regarding “SMSGYDQVL (listed as Homo sapiens) [SEQ ID NO 8]”, the Exchange yield entry is on record as “++ (20%-49% = ++)”. The same measure, in the same setting: the result for “YLAPFLRNV (listed as Homo sapiens) [SEQ ID NO 51]” reads “+++ (50%-70%, +++)”; that for “TLISRLPAV (listed as Homo sapiens) [SEQ ID NO 61]”, “++++ (>70 = ++++)”. On the same count and under the same terms, with “ALASVIKEL (listed as Homo sapiens) [SEQ ID NO 89]” the entry was “+++ (50%-70%, +++)”; with “KIYNEFISV (listed as Homo sapiens) [SEQ ID NO 30]”, “++ (20%-49% = ++)”; with “TLWYRAPEV (listed as Homo sapiens) [SEQ ID NO 7]”, “++ (20%-49% = ++)”.

As for “VLFPNLKTV (listed as Homo sapiens) [SEQ ID NO 35]”, the Exchange yield result is “++ (20%-49% = ++)”. Still for that read-out and setting: the result for “YLIHFPVSV (listed as Homo sapiens) [SEQ ID NO 13]” reads “+ (<20% = +)”. Still for that read-out and setting: the result for “TVIGFLLPFA (listed as Homo sapiens) [SEQ ID NO 16]” reads “++++ (>70 = ++++)”. On the same count and under the same terms, with “KIQEMQHFL (listed as Homo sapiens) [SEQ ID NO 2]” the entry was “+++ (50%-70%, +++)”; with “FLHHLEIEL (listed as Homo sapiens) [SEQ ID NO 23]”, “+++ (50%-70%, +++)”.

With “ALMDKEGLTAL (listed as Homo sapiens) [SEQ ID NO 9]”, the Exchange yield entry is recorded as “++++ (>70 = ++++)”. As to “FLLDGSANV (listed as Homo sapiens) [SEQ ID NO 73]”, the Exchange yield entry is on record as “++++ (>70 = ++++)”. As for “SLFGNSGILENV (listed as Homo sapiens) [SEQ ID NO 80]”, the Exchange yield entry is given as “+++ (50%-70%, +++)”.

For “GLIEIISNA (listed as Homo sapiens) [SEQ ID NO 48]”, the Exchange yield entry is recorded as “+++ (50%-70%, +++)”. As to “FQYDHEAFL (listed as Homo sapiens) [SEQ ID NO 14]”, the Exchange yield entry is “++++ (>70 = ++++)”.

As for “KLFGEKTYL (listed as Homo sapiens) [SEQ ID NO 26]”, the Exchange yield result is on record as “++ (20%-49% = ++)”. Same read-out and setting: with “SLAPAGVIRV (listed as Homo sapiens) [SEQ ID NO 79]” the entry was “+++ (50%-70%, +++)”; with “SLWGGDVVL (listed as Homo sapiens) [SEQ ID NO 42]”, “+++ (50%-70%, +++)”.

Regarding “AMLAVLHTV (listed as Homo sapiens) [SEQ ID NO 64]”, the Exchange yield result was “++ (20%-49% = ++)”. For the substance “KLLEYIEEI (listed as Homo sapiens) [SEQ ID NO 71]”, the Exchange yield entry is on record as “++ (20%-49% = ++)”. On the same count and under the same terms, the result for “KIVDFSYSV (listed as Homo sapiens) [SEQ ID NO 85]” reads “+++ (50%-70%, +++)”.

On to “KLAVALLAA (listed as Homo sapiens) [SEQ ID NO 15]”, for which the Exchange yield entry is “++ (20%-49% = ++)”.

For “SLLESNKDLLL (listed as Homo sapiens) [SEQ ID NO 88]”, the Exchange yield result was “+++ (50%-70%, +++)”. Same read-out and setting: the result for “AILDTLYEV (listed as Homo sapiens) [SEQ ID NO 21]” reads “++ (20%-49% = ++)”; that for “GVLENIFGV (listed as Homo sapiens) [SEQ ID NO 47]”, “++++ (>70 = ++++)”. Same read-out and setting: the result for “KLDETNNTL (listed as Homo sapiens) [SEQ ID NO 6]” reads “+++ (50%-70%, +++)”. For “AVVEFLTSV (listed as Homo sapiens) [SEQ ID NO 19]”, the Exchange yield entry was “+++ (50%-70%, +++)”. As to “SLHFLILYV (listed as Homo sapiens) [SEQ ID NO 38]”, the Exchange yield result is “+ (<20% = +)”. Same read-out and setting: with “HLLEDIAHV (listed as Homo sapiens) [SEQ ID NO 92]” the entry was “++ (20%-49% = ++)”. Regarding “KILEDVVGV (listed as Homo sapiens) [SEQ ID NO 70]”, the Exchange yield entry was “+++ (50%-70%, +++)”. Turning to “SLIEDLILL (listed as Homo sapiens) [SEQ ID NO 12]”, the Exchange yield result is “++ (20%-49% = ++)”.

For the substance “ALYDSVILL (listed as Homo sapiens) [SEQ ID NO 75]”, the Exchange yield result is on record as “++ (20%-49% = ++)”.

As to “SLLAQNTSWLL (listed as Homo sapiens) [SEQ ID NO 74]”, the Exchange yield result is “+++ (50%-70%, +++)”. Take “AMSSKFFLV (listed as Homo sapiens) [SEQ ID NO 69]”: the Exchange yield entry is on record as “++ (20%-49% = ++)”.

Take “SLYDNQITTV (listed as Homo sapiens) [SEQ ID NO 78]”: the Exchange yield entry is “++ (20%-49% = ++)”. Still for that read-out and setting: the result for “KIQEILTQV (listed as Homo sapiens) [SEQ ID NO 66]” reads “++ (20%-49% = ++)”.
